In a protein production outcome set (Wang et al. 2014):

Test: label from the status in PepcDB records

| Sequence | protein production |
| --- | --- |
| MRVNILMSTYNGEKFVADQIESIQKQTYTDWNLIIRDDGSSDRTCEIVDDFVSKDNRIKLIRAENVGVIKSFHELVTDSNNADFYFFADQDDYWLPEKLSVMLEETKKHDNSKPVMYYTDLKVTDRNLNVTSESMIRGQSDHANTKLVQELTENTVTGGASMINHELAQLWQSTNDIIMHDWYLAIVAAALGELVYIDQPTHLYRQHDSNVLGARTLSKRIKKWIHPNLWFEKYWWLITASQKQAQKLLTENLSLMSEDDKALVSDYVNILKQPKAERRQILDRYNLRKNKNYHTSIFRTLIITKFAYKGKKTNEFLQP | failed |
| MRVSCVYATASRWGGPPVASEVRGDAAISTTPDAAPGLAARRRRILFVAEAVTLAHVVRPFALAQSLDPSRYEVHFACDPRYNQLLGPLPFRHHAIHTIPSERFFGNLTQGRFYAMRTLRKYVEADLRVLDEIAPDLVVGDLRISLSVSARLAGIPYIAIANAYWSPYAQRRFPLPDVIWTRLFGVRLVKLLYRLERPLLFALQCMPLNWVRRRHGLSSLGWNLCRIFTDGDHTLYADVPELMPTYDLPANHEYLGPVLWSPAGKPPTWWDSLPTDRPIVYATLGTSGGRNLLQLVLNALAELPVTVIAATAGRSDLKTVPANAFVADYLPGEAAAARSAVVVCNGGSLTTQQALVAGVPVIGVAGNLDQHLNMEAVERAGAGVLLRTERLKSQRVAGAVMQVISRSEYRQAAARLADAFGRDRVGFPQHVENALRLMPENRPRTWLAS | failed |
| MRVSMTLFRSKENHRMLNNFAKLNGGDDVRMGADVPADALVDRLLVGFFYGPSDRLPEVLHVSNQLVRTKESYPFLPFCASQSHIWKPGDPLRHLEPFTLNPWCIIPYVNPRSQDFPFPELNEIKSQQLYFDHLLGIKKLPTMTLDVPKSHHFQPKLSRLKTHHNFPYLADFVIKVPTTIFSFIVAISLLL | failed |
| MRVVLQMAPPIASGRGGQGLITCPGHKERRVASLNRIAMARSSRRMIKDLGPEGLEVAEISGKWGQQFPFRSYRRFIYPEYDICAGPYCDAAGEIEQFDLILANQVWEHLDRPYEATLNVLEMLRTGGHFWLAVPFFVPFHAAPMDNSRWSARGLRNFLIECGFAEEEIRAEQWGNRHAALRNLERPWPPVYDPETDPLDNDPDFPICAWAIARKT | failed |
| MRWFILCLRKYVDFKGRARRKEFWLFTLFYLIALVIPPAVIIPIAVIYRHTIDIALCIRICVVVEILVIFSLLLPAYAVTVRRLHDTNRSGLWVIASIVPRVLAEGLGVIFGQKWLIQIAEGEFPTLLLINMFLLLIDLCVSILILVMMCERGTEGENRFGPDPLSDGREVLMEPEPGK | failed |
| MRWILFILFCLLGAPAHAVSIPGVTTTTTTDSTTEPAPEPDIEQKKAAYGALADVLDNDTSRKELIDQLRTVAATPPAEPVPKIVPPTLVEEQTVLQKVTEVSRHYGEALSARFGQLYRNITGSPHKPFNPQTFSNALTHFSMLAVLVFGFYWLIRLCALPLYRKMGQWARQKNRERSNWLQLPAMIIGAFIIDLLLLALTLFVGQVLSDNLNAGSRTIAFQQSLFLNAFALIEFFKAVLRLIFCPNVAELRPFTIQDESARYWSRRLSWLSSLIGYGLIVAVPIISNQVNVQIGALANVIIMLCMTVWALYLIFRNKKEITQHLLNFAEHSLAFFSLFIRAFALVWHWLASAYFIVLFFFSLFDPGNSLKFMMGATVRSLAIIGIAAFVSGMFSRWLAKTITLSPHTQRNYPELQKRLNGWLSAALKTARILTVCVAVMLLLSAWGLFDFWNWLQNGAGQKTVDILIRIALILFFSAVGWTVLASLIENRLASDIHGRPLPSARTRTLLTLFRNALAVIISTITIMIVLSEIGVNIAPLLAGAGALGLAISFGSQTLVKDIITGVFIQFENGMNTGDLVTIGPLTGTVERMSIRSVGVRQDTGAYHIIPWSSITTFANFVRGIGSVVANYDVDRHEDADKANQALKDAVAELMENEEIRGLIIGEPNFAGIVGLSNTAFTLRVSFTTLPLKQWTVRFALDSQVKKHFDLAGVRAPVQTYQVLPAPGATPAEPLPPGEPTL | failed |
| MRWITRPGWPGNLLALAAGGLTTLALAPFDFWPLVLVSVAMFYLGLRELSPRQALARGWCYGFGLYGAGTSWIYVSIHTYGGASALLAGLLMLLFIAAIALFFALPAWVWARWLRRNEAPLADSLAFAALWLWQEAFRGWFLTGFPWLYSGYSQLDAPLAGLAPVGGVWLISFALGLTAALLCNLHRLRARKSFLAMGVLLLLAPWVAGLALKDHAWTSPSGPPLKVAAMQGNIEQSMKWDPQKLNDQLALYRDMTFRSQQADLIVWPETAVPVLKESAEGYLSMMGKFAADRGAALITGVPVREPTGRGEYSYYNGITVTGQGDGTYFKQKLVPFGEYVPLQDLLRGLISFFDLPMSDFARGPNDQALLQAKGYHIAPFICYEVVYPEFAAGLSAQSDLLLTVSNDTWFGTSIGPLQHLQMAQMRALEAGRWMIRATNNGVTALIDPFGRITVQIPQFERGVLYGEVVPMHELTPYLHWRSWPLAIVCLLLFGWALLAARISKTV | failed |
| MRWKLRTAGGLTALALLGGALAGPAARAAEQGSDRLGDLVNPFIGTQNEGNTYPGAAVPFGMVQLSPDTGHNTGYDYTQNHIRGFSLVHLSGVGCRIGGDLPVLPTTGDVTETDYAKYAAGFSHDSERASPGYYRVGLDSGIVAELTATGRTGVQRYTFPATDKANVLLNAGQALHKTVSTDVEVLDDRTVRTRISGSGFCRDTGPYTVYTITRFDRPFTAYGTWHGGTVTEGSAESAAGTGRNGAYARFDATEDRTVEATTALSYVDARGAEVNLRSAEGRSFADVREAARRSWEDRLDDVRVRGGSDTLRRTFYSSLYRSFLAPNIGSDADGRYTGWDHRIHRARGFTYYQNWSLWDTYRTQCQLLALLAPRESRDMAISVLKIDEDGGWLPKWGYGTVETNIMSGDPVTPFLTNAYQQGLLKGYEEQAYRALAKNADGLPPAAYPGVGRDGNREYIADGFVPYIKGGPHAKPGDSDYAHGASATMEYALSDAMLSRMARDLGHDADAERYTARSRNYRTLFDASTGFFRARDTSGAFAGPADPADSEGFHEGTAWQYQWLVPQDLPGLVDLIGGKQAANDRLDAFFAYEQLLQDPARTAREVWVDGPYEYYNSDKYNPQNEPDLIAPYTYLSTGQPWKTTDVVHAALTLFTDTPTGMTGNDDLGTMSAWHVLSSIGLFPVQPGYDTWGLSTPVFERVDLRLDRGYYPRGTLTVTAPGTSDRDRYIQSVRVDGASHDRTYLTTRVLRGLEALHFAVGARPSAWGTAPHAAPPALK | failed |
| MRYLADHDDLTGLHNRRALLQHLDQRLAPGQPGPVAALFLDLDRLKAINDYLGHAAGDQFIHVFAQRIGDALVGESLIARLGGDEFVLIPASPMSADAAQPLAERLRDQLKDHVAIGGEVLTRTVSIGVASGTPGQHTLEHHHHHH | not failed |
| MRYLLIILAFWLPLQSHAVEFDENTRFLPLGRAVQVFEDPTGTATIDSVSSPAGAQAFRPAPAGTFNAGYSRSAFWLKVELSYRPADADIHNDWLLELAYPPMDRVDFYAPDANGRPTLTWQTGDMLPFASRQFAQNNYLFQLELPPGQTRTLYVRISSEGSVQAPLNLWSTHAYLEAQPTKIYVFGLIYGVLLGMLVYNLFIYLSVREPDYLYYLLYVAAFGLYQMSINGVAIEYLWPDSPWWANASTPFLMALATLFACQFTRSFLGTVRLGRWLDRSLLTLIGAAVLVMCIALFLSYGPALRAATQLVMAGALTIYLAGIVAVVKGERVGRYFVLAWSVFMIGGLVFGLMLMGYMPNTFLTMYASHIGTLLEMAFLSMALADRINHARYQQEQTLLAYGKDLERLNQQLATSNRLKDEFLATLTHELRTPMNGVIGSLEVMQTLDMDDEVEMYQQTAASSARDMMSMINGILTLTELQAGVLYAECSAFAPVDLVDRLRERFSGAAQSKGLTLTLDLDDKLPPGIRGDAGKLYQCLECLVDNAIKFTRKGAVQVRFSGQPQDLERMYLRVEVMDSGIGFSHLDEALLYQHFLQVDGSMTREYGGLGIGLAICRKLVELQGGELSHRSEPGKGSCFTLSIPMLMAVPGAVRRAPEAKAQWGHVSRS | failed |
| MRYRNSRQVTGVVKNVTVSQSCGKWYISIQAESEVSTPVHPSASMVGLDAGVAKLASLSDGTVFEPVNSFQKNQKTLARLQRQLSRKVKFSNNWQKQKRKIQRLHSCIANIRRDYLHKVTTTVSKNHVMIVIEDLKVSNMSKSAAGTVSQPGRNVRAKSGLNRSILDQGWYEMRRQLEYKQLWRGGQVLAVPPAYTSQRCACCGHTAKENRLSQSKFRCQVCGYTANADVNGARNILAAGHAVLACGEMVQSGRSLKQEPTEMIQATALEHHHHHH | failed |
| MSAAQAVDDVPLEHAGNDVSDRMSLQRGVQLYMNYCVGCHSLKYLRYSRIAADLGLSEVQVMSTLNVTGAKFGDTIMTGMPVDTSEQWFGKIPPDLSLVARVRGSDWIYTYLRSFYVDSTRPLGWNNRLFVDVSMPNPLSHLQGVQRAEYGGASQAGADRLVTGLVLVQPGQQSPAEFDQTLRDIVNFLQYAAEP | failed |
| MSADHDEGLRRAQRLHLSGDADGAERAYRALLDDAALGAPAAHWLGFLLMQQGRLDEALAWLERVVAADDGHAEWHFNLGLVRARLGRSEEAVFALREAARRDPSRYFYWTNLGAQLMRGGQDAEAEQALRRAASLDPHCPDAFYLLTEMLLRQGRHAEARRCNAQGVLAEPPGKMAPIAVGQALCELGRSEEARSLAQSWLLAQPGHPVARHMLAAFGGGDAPADGDDEYVGCAFDAAAASFDQDLSRLRYQGPSWTAACLAGLSLAPKSLSALDLGCGTGLIGEVLQPWASRLDGVDLSAGMLARAGAKGIYDSLEQAELRAFLRQTDRTYQLIACMDTLPYLGELDALFMLLAERMAPGGLLLFCTESLEDGEAGDGRLHHSGRYRHHSRYLDRLLAVGWDVLERARMPVRDEAGCPVWGDFVCARKVFAA | failed |
| MSAEFIDSLAVMLLALGMTTAIGGMYFLFSALGNEKRIEGLLMPAVGVGLFDFMSGFVMSFTWPLPSSYNMLFGDPLLMAGLLLMISAIAYYKHYDISSVSILLFFLGIYVIIEAVGIVNYHLESGDNLLAAMGLYIVDGIAAILSPIMYIDQKKGKIAYMIEAAILIIGTLIALFIGYTAIYGHLLDFIKYFP | failed |
| MSAEVETSEGVDESEKKNSGALEKENQMRMADLSELLKEGTKEAHDRAENTQFVKDFLKGNIKKELFKLATTALYFTYSALEEEMERNKDHPAFAPLYFPMELHRKEALTKDMEYFFGENWEEQVQCPKAAQKYVERIHYIGQNEPELLVAHAYTRYMGDLSGGQVLKKVAQRALKLPSTGEGTQFYLFENVDNAQQFKQLYRARMNALDLNMKTKERIVEEANKAFEYNMQIFNELDQAGSTLARETLEDGFPVHDGKGDMRKCPFYAAEQDKGALEGSSCPFRTAM | not failed |
| MSAFDFNFQPSINQQDVLDFTDLRFIGKYENIVFLDSNVVSKNRISTYFIKCHHLKENLRKAKLENSLENRLKHYSKYKLLIIDEIGYLPIGSEAAKIFFQINRFKVLEHHHHHH | not failed |
| MSAHQGSETVTFGDSSAERPLGRSIMRGMANRCPACGSGRLFRAFLKPVDACAACGEEMHHHRSDDLPPYISIVIIGHIAVGGFMMTDMILNIPMWAHFAIWVPITILAALLTLQPIKGGVIGLQWALRMHGFDRKQPKVQIDGSSH | failed |
| MSAHRPAAATPAAAAPSKRERFLSLDVFRGLTIFLMILVNTAGPGAQAYAQLTHAAWFGFTLADLVFPSFLFAVGSAMSFALATNTPHLQFLGRVSRRAALILLCGVLMYWFPFFHLQPDGGWAFTTVDQLRLTCVLQRIGLCYLAAALLVRYLPPRGIAPVCLALLLGYWALLYAFGQPGAELSKTGNAGTRLDLWLYGRDHLYRKDGGFDPEGLLGTLSATVNVLAGYLCGRFLQRHGKTIASTRSLLLAGAGLVLLALLWAPAWPLSKKLWSGSFVACTVGLDLLALGALVYLLELRGWTGGSGFFTVLGRNPLAIYLFSELFVVVLRLIPAGSSGLDLYAWAGIGVFQTIAPGPLGSLLCALSYTLMCCAVGWWMDRRRWYLRL | failed |
| MSAISPNGAEEHPIGLTLNGQRLTLQVNPWTTLLDLLREQLDLVGTKKGCDHGQCGACTVLRDGKRVNACLTLAIMCDGAELVTIEGLASGDVLHPMQRAFITHDAFQCGYCTPGQICSAVGLAREGRAYTREAIREQMSGNLCRCGAYSNIVAAVEEALPLMTDLAPPQRGPNP | failed |
